# Results as given in patent US20250313634A1 (WUXI BIOLOGICS SHANGHAI, published 2025).
# B1: 1.14.4 (antibody, V domains shown)
# VH: EVQLLESGGGLVQPGGSLRLSCAASGFTFSSYAMSWVRQAPGKGLEWVSGISGSGGFTYYADSVKGRFTISRDNSKNTLYLQMNSLRAEDTAVYYCAKPPRGYNYGPFDYWGQGTLVTVSS
# VL: SYVLTQPPSVSVAPGQTARITCGGNNIGSKSVHWYQQKPGQAPVLVVYDDSDRPSGIPERFSGSNSGNTATLTISRVEAGDEADYYCQVWDSSSDHVVFGGGTKLTVL
# notes: Fully human monoclonal antibody with a human constant region of IgG4 isotype
# Columns and labels:
# Assay in all cases: capture ELISA on coated 1.14.4; relative to silent alanine substitutions
# [1] = biological target: T1, hPD-L1_ECD.His point mutant S34A (human, UniProt Q9NZQ7 19-238)
# T1 construct: extracellular domain
# Method: (§1) After interacting with the supernatant that contains quantified PD-L1 mutant or human/mouse PD-L1_ECD.His protein (Sino Biological, China), HRP conjugated anti-His antibody (1:5000; Rockland Immunochemicals, Pottstown, PA) was added as detection antibody. Absorbance was normalized according to the average of control mutants. After setting an additional cutoff to the binding fold change (<0.55), the final determined epitope residues were identified.
# (§2) The observed binding reductions most probably resulted from the instability or even collapse of hPD-L1 structure after alanine substitutions. After setting an additional cutoff to the binding fold change (<0.55), the final determined epitope residues were listed in Table 3.
# [2] = biological target: T2, hPD-L1_ECD.His point mutant D90A (human, UniProt Q9NZQ7 19-238)
# T2 construct: extracellular domain
# Method: as §1, §2
# [3] = biological target: T3, hPD-L1_ECD.His point mutant K105A (human, UniProt Q9NZQ7 19-238)
# T3 construct: extracellular domain
# Method: as §1, §2
# [4] = biological target: T4, hPD-L1_ECD.His point mutant V128A (human, UniProt Q9NZQ7 19-238)
# T4 construct: extracellular domain
# Method: as §1, §2
# [5] = biological target: T5, hPD-L1_ECD.His point mutant D61A (human, UniProt Q9NZQ7 19-238)
# T5 construct: extracellular domain
# Method: as §1, §2
# [6] = biological target: T6, hPD-L1_ECD.His point mutant V111A (human, UniProt Q9NZQ7 19-238)
# T6 construct: extracellular domain
# Method: as §1, §2
# [7] = biological target: T7, hPD-L1_ECD.His point mutant R86A (human, UniProt Q9NZQ7 19-238)
# T7 construct: extracellular domain
# Method: as §1, §2
# [8] = biological target: T8, hPD-L1_ECD.His point mutant L74A (human, UniProt Q9NZQ7 19-238)
# T8 construct: extracellular domain
# Method: as §1, §2
# [9] = biological target: T9, hPD-L1_ECD.His point mutant D73A (human, UniProt Q9NZQ7 19-238)
# T9 construct: extracellular domain
# Method: as §1, §2
# [10] = biological target: T10, hPD-L1_ECD.His point mutant Q91A (human, UniProt Q9NZQ7 19-238)
# T10 construct: extracellular domain
# Method: as §1, §2
# [11] = biological target: T11, hPD-L1_ECD.His point mutant S79A (human, UniProt Q9NZQ7 19-238)
# T11 construct: extracellular domain
# Method: as §1, §2
# [12] = biological target: T12, hPD-L1_ECD.His point mutant E60A (human, UniProt Q9NZQ7 19-238)
# T12 construct: extracellular domain
# Method: as §1, §2
# [13] = biological target: T13, hPD-L1_ECD.His point mutant A51G (human, UniProt Q9NZQ7 19-238)
# T13 construct: extracellular domain
# Method: as §1, §2
# [14] = biological target: T14, hPD-L1_ECD.His point mutant P216A (human, UniProt Q9NZQ7 19-238)
# T14 construct: extracellular domain
# Method: as §1, §2
# [15] = biological target: T15, hPD-L1_ECD.His point mutant F19A (human, UniProt Q9NZQ7 19-238)
# T15 construct: extracellular domain
# Method: as §1, §2
# [16] = biological target: T16, hPD-L1_ECD.His point mutant V143A (human, UniProt Q9NZQ7 19-238)
# T16 construct: extracellular domain
# Method: as §1, §2
# [17] = biological target: T17, hPD-L1_ECD.His point mutant I64A (human, UniProt Q9NZQ7 19-238)
# T17 construct: extracellular domain
# Method: as §1, §2
# [18] = biological target: T18, hPD-L1_ECD.His point mutant K75A (human, UniProt Q9NZQ7 19-238)
# T18 construct: extracellular domain
# Method: as §1, §2
# [19] = biological target: T19, hPD-L1_ECD.His point mutant V29A (human, UniProt Q9NZQ7 19-238)
# T19 construct: extracellular domain
# Method: as §1, §2
# [20] = biological target: T20, hPD-L1_ECD.His point mutant T127A (human, UniProt Q9NZQ7 19-238)
# T20 construct: extracellular domain
# Method: as §1, §2
# [21] = biological target: T21, hPD-L1_ECD.His point mutant S117A (human, UniProt Q9NZQ7 19-238)
# T21 construct: extracellular domain
# Method: as §1, §2
# [22] = biological target: T22, hPD-L1_ECD.His point mutant T154A (human, UniProt Q9NZQ7 19-238)
# T22 construct: extracellular domain
# Method: as §1, §2
# [23] = biological target: T23, hPD-L1_ECD.His point mutant T201A (human, UniProt Q9NZQ7 19-238)
# T23 construct: extracellular domain
# Method: as §1, §2
# [24] = biological target: T24, hPD-L1_ECD.His point mutant V174A (human, UniProt Q9NZQ7 19-238)
# T24 construct: extracellular domain
# Method: as §1, §2
# [25] = biological target: T25, hPD-L1_ECD.His point mutant K62A (human, UniProt Q9NZQ7 19-238)
# T25 construct: extracellular domain
# Method: as §1, §2
# [26] = biological target: T26, hPD-L1_ECD.His point mutant D215A (human, UniProt Q9NZQ7 19-238)
# T26 construct: extracellular domain
# Method: as §1, §2
# T6 sequence (Q9NZQ7 19-238 V111A): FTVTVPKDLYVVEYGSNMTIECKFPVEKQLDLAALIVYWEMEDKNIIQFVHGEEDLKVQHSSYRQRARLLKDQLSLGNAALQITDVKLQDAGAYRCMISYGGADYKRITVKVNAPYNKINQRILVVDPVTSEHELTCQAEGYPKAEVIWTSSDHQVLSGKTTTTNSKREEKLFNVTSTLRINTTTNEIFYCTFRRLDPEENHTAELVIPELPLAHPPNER
# T1 sequence (Q9NZQ7 19-238 S34A): as the sequence (Q9NZQ7 19-238 V111A) above, with S16A, A93V counted along it
# T19 sequence (Q9NZQ7 19-238 V29A): as the sequence (Q9NZQ7 19-238 V111A) above, with V11A, A93V counted along it
# T11 sequence (Q9NZQ7 19-238 S79A): as the sequence (Q9NZQ7 19-238 V111A) above, with S61A, A93V counted along it
# T22 sequence (Q9NZQ7 19-238 T154A): as the sequence (Q9NZQ7 19-238 V111A) above, with A93V, T136A counted along it
# T18 sequence (Q9NZQ7 19-238 K75A): as the sequence (Q9NZQ7 19-238 V111A) above, with K57A, A93V counted along it
# T25 sequence (Q9NZQ7 19-238 K62A): as the sequence (Q9NZQ7 19-238 V111A) above, with K44A, A93V counted along it
# T3 sequence (Q9NZQ7 19-238 K105A): as the sequence (Q9NZQ7 19-238 V111A) above, with K87A, A93V counted along it
# T17 sequence (Q9NZQ7 19-238 I64A): as the sequence (Q9NZQ7 19-238 V111A) above, with I46A, A93V counted along it
# T26 sequence (Q9NZQ7 19-238 D215A): as the sequence (Q9NZQ7 19-238 V111A) above, with A93V, D197A counted along it
# T10 sequence (Q9NZQ7 19-238 Q91A): as the sequence (Q9NZQ7 19-238 V111A) above, with Q73A, A93V counted along it
# T14 sequence (Q9NZQ7 19-238 P216A): as the sequence (Q9NZQ7 19-238 V111A) above, with A93V, P198A counted along it
# T8 sequence (Q9NZQ7 19-238 L74A): as the sequence (Q9NZQ7 19-238 V111A) above, with L56A, A93V counted along it
# T24 sequence (Q9NZQ7 19-238 V174A): as the sequence (Q9NZQ7 19-238 V111A) above, with A93V, V156A counted along it
# T13 sequence (Q9NZQ7 19-238 A51G): as the sequence (Q9NZQ7 19-238 V111A) above, with A33G, A93V counted along it
# T20 sequence (Q9NZQ7 19-238 T127A): as the sequence (Q9NZQ7 19-238 V111A) above, with A93V, T109A counted along it
# T5 sequence (Q9NZQ7 19-238 D61A): as the sequence (Q9NZQ7 19-238 V111A) above, with D43A, A93V counted along it
# T4 sequence (Q9NZQ7 19-238 V128A): as the sequence (Q9NZQ7 19-238 V111A) above, with A93V, V110A counted along it
# T12 sequence (Q9NZQ7 19-238 E60A): as the sequence (Q9NZQ7 19-238 V111A) above, with E42A, A93V counted along it
# T9 sequence (Q9NZQ7 19-238 D73A): as the sequence (Q9NZQ7 19-238 V111A) above, with D55A, A93V counted along it
# T23 sequence (Q9NZQ7 19-238 T201A): as the sequence (Q9NZQ7 19-238 V111A) above, with A93V, T183A counted along it
# T2 sequence (Q9NZQ7 19-238 D90A): as the sequence (Q9NZQ7 19-238 V111A) above, with D72A, A93V counted along it
# T21 sequence (Q9NZQ7 19-238 S117A): as the sequence (Q9NZQ7 19-238 V111A) above, with A93V, S99A counted along it
# T16 sequence (Q9NZQ7 19-238 V143A): as the sequence (Q9NZQ7 19-238 V111A) above, with A93V, V125A counted along it
# T7 sequence (Q9NZQ7 19-238 R86A): as the sequence (Q9NZQ7 19-238 V111A) above, with R68A, A93V counted along it
# T15 sequence (Q9NZQ7 19-238 F19A): as the sequence (Q9NZQ7 19-238 V111A) above, with F1A, A93V counted along it
binder,measurement,setting,value
B1,fold change,[1],0.813 fold
same,fold change,[2],0.858 fold
same,fold change,[3],0.816 fold
same,fold change,[4],0.701 fold
same,fold change,[5],0.372 fold
same,fold change,[6],0.723 fold
same,fold change,[7],1 fold
same,fold change,[8],1.02 fold
same,fold change,[9],0.988 fold
same,fold change,[10],0.906 fold
same,fold change,[11],0.962 fold
same,fold change,[12],0.547 fold
same,fold change,[13],1.03 fold
same,fold change,[14],0.563 fold
same,fold change,[15],0.78 fold
same,fold change,[16],1.02 fold
same,fold change,[17],0.716 fold
same,fold change,[18],1.01 fold
same,fold change,[19],0.882 fold
same,fold change,[20],0.735 fold
same,fold change,[21],0.935 fold
same,fold change,[22],0.888 fold
same,fold change,[23],0.781 fold
same,fold change,[24],0.983 fold
same,fold change,[25],0.169 fold
same,fold change,[26],0.811 fold
